Data taken from patent US20260124314A1, “ANTl-5T4 ANTIGEN BINDING DOMAINS, ANTIBODY-DRUG CONJUGATES AND METHODS OF USE THEREOF” (Salubris Biotherapeutics, Inc., priority 2023, published 2026).

T1: recombinant human 5T4 protein (human, UniProt Q13641 32-355)
T1 construct: The ELISA protein was bought (Sino biologics and Biorbyt); also called recombinant 5T4 protein; trophoblast glycoprotein (TPBG)
T1 sequence: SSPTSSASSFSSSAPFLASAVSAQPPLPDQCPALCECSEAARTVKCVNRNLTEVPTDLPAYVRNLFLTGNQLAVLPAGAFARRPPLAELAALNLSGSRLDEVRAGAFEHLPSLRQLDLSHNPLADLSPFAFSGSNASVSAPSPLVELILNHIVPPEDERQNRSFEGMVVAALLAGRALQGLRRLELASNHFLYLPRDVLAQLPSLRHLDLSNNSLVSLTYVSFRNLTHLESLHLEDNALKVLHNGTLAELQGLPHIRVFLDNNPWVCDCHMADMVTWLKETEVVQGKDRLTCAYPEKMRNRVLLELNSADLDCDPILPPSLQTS

T2: FcγRIIa (UniProt P12318 34-218, limits assumed)
T2 construct: also called Fc gamma receptor IIa
T2 sequence (looked up): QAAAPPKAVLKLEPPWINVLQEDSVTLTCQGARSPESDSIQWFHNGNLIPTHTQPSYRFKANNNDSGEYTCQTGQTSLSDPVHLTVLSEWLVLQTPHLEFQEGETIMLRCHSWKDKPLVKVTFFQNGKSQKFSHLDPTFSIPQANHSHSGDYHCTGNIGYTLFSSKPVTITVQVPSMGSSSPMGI

T3: FcγRIIb (UniProt P31994 43-217, limits assumed)
T3 construct: also called Fc gamma receptor IIb
T3 sequence (looked up): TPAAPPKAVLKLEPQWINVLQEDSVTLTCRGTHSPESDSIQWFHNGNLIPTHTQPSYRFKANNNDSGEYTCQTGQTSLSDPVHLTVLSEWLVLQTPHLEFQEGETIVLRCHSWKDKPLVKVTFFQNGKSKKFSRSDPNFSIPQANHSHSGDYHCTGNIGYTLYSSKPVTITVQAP

T4: FcγRIIa (Homo sapiens, UniProt P12318)
T4 construct: purchased Sino Biological
T4 sequence (P12318 34-317): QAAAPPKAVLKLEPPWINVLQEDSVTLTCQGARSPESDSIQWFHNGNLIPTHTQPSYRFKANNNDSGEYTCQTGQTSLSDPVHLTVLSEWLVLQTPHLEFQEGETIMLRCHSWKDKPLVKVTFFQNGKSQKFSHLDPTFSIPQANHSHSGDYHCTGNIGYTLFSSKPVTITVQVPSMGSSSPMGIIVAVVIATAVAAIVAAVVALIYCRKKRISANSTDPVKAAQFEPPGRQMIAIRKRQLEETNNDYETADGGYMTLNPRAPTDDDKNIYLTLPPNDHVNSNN

T5: FcγRIIb (Homo sapiens, UniProt P31994)
T5 construct: purchased Sino Biological
T5 sequence (P31994 43-310): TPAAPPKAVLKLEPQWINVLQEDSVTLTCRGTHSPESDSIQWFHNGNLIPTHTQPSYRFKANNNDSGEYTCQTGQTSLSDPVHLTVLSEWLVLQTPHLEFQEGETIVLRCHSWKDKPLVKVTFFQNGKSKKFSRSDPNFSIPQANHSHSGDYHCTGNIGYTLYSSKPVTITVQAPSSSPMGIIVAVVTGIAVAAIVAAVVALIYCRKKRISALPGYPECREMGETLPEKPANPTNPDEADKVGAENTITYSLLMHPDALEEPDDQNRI


Key:
FcγRIIIa (158V) [1] = biological target: T6, FcγRIIIa (158V) (UniProt P08637 17-208); test: SPR (Biacore 8K), antibody captured on Protein A chip, Fc receptor as analyte
T6 construct: 158 is usually counted on the mature protein (176 on the precursor); also called Fc gamma receptor IIIa
T6 sequence (P08637 17-208 F176V): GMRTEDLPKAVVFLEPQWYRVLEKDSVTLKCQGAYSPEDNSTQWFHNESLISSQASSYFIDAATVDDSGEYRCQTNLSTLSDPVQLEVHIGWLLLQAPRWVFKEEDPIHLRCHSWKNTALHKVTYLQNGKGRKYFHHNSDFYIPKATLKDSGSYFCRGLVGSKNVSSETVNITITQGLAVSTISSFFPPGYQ
Description: (§1) A total of 5 Fc receptors, including FcγRI (Abcam), FcγRIIa, FcγRIIb, FcγRIIIa (158V), and FcγRIIIb (Sino Biological), were analyzed. […] SPR kinetic experiments were performed on Biacore 8K systems (GE Healthcare) with HBS-EP+ as running buffer. […] Capture level for each ligand was maintained between 50-100RU. […] After each binding cycle, the sensor chip was regenerated with glycine solution, pH 1.5. The resulting sensorgrams were fitted with a one-to-one binding model to extract kinetic constants using Biacore 8K Evaluation Software.

FcγRIIIb [2] = biological target: T7, FcγRIIIb (UniProt O75015 17-200, limits assumed); test: as above
T7 construct: also called Fc gamma receptor IIIb
T7 sequence (O75015 17-200 limits assumed): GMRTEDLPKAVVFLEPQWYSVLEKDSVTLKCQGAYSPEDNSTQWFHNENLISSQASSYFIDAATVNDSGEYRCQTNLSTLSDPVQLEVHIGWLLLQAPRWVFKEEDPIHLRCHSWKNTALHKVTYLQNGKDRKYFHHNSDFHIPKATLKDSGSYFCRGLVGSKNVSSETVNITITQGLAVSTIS
Description: as §1

[3] = biological target: T1, recombinant human 5T4 protein; test: SPR (Biacore 8K), antibody captured on Protein A chip, 5T4 as analyte 0.625-10 nM, 1:1 model
Description: The binding affinity of anti-5T4 bispecific antibody-drug conjugate monospecific and bispecific antibodies to 5T4 was measured by Biacore kinetic experiments using a Protein A sensor chip on Biacore 8K (Cytiva) with HBS-EP+ as running buffer. […] After each binding cycle, the sensor chip was regenerated with glycine solution, pH 1.5. Signals from reference surface and an ensemble of buffer blank injections were subtracted from binding signals to correct for nonspecific binding and injection artifacts. The corrected experimental signals were globally fitted to a 1:1 binding model to extract kinetic constants, including association rate constant (ka), dissociation rate constant (kd), and equilibrium dissociation constant (KD), using the Biacore 8K Evaluation Software.

FcγRI (Abcam) = biological target: T8, FcγRI (Abcam) (UniProt P12314 16-288, limits assumed); test: SPR (Biacore 8K), antibody captured on Protein A chip, Fc receptor as analyte, 1:1 model
T8 construct: also called Fc gamma receptor I
T8 sequence (P12314 16-288 limits assumed): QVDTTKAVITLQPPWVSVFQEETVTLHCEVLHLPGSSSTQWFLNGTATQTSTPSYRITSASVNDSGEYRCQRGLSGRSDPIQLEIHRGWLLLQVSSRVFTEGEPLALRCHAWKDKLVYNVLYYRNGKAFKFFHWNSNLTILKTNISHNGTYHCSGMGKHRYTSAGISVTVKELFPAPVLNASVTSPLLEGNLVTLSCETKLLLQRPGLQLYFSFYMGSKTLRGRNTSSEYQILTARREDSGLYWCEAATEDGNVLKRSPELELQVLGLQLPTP
Description: as §1

FcγRIIa [4] = biological target: T2, FcγRIIa; test: as above
Description: as §1

FcγRIIb [5] = biological target: T3, FcγRIIb; test: as above
Description: as §1

FcγRIIIb [6] = biological target: T9, FcγRIIIb (Homo sapiens, UniProt O75015); test: FcγR binding activity, Biacore SPR; settings: antibody captured on protein A chip, receptor 0.41 nM to 100 nM
T9 construct: purchased Sino Biological
T9 sequence (O75015 17-200): as the sequence (O75015 17-200 limits assumed) above
Description: (§2) Site mutations (L234F and S239C) in the Fc region of anti-5T4 bispecific antibody-drug conjugates were designed to mitigate potential side effects which could be caused by the antibody effector function. To confirm the mutations had the intended effect of reducing Fc receptor binding activities, the affinities between an anti-5T4 bispecific antibody with Fc mutations and an array of Fc receptors were evaluated by Biacore assay. A total of 5 Fc receptors, including FcγRI (Abcam), FcγRIIa, FcγRIIb, FcγRIIIa (158V), and FcγRIIIb (Sino Biological), were analyzed. One parental anti-5T4 Antibody (Ab1) without Fc mutations, was used as a positive control for FcR binding. SPR kinetic experiments were performed on Biacore 8K systems (GE Healthcare) with HBS-EP+ as running buffer. Antibodies were captured in the active flow cell of a protein A sensor chip (Cytiva). Capture level for each ligand was maintained between 50-100RU. For kinetic analysis, each receptor was serially diluted to 6 different concentrations, ranging from 0.41 nM to 100 nM, and the serial dilutions were injected sequentially over both reference and active flow cells in each single channel. After each binding cycle, the sensor chip was regenerated with glycine solution, pH 1.5. The resulting sensorgrams were fitted with a one-to-one binding model to extract kinetic constants using Biacore 8K Evaluation Software.
(§3) Site mutations (L234F, S239C and N434A) in the Fc region of the Bs3-HL biparatopic antibody are designed to mitigate potential side effects caused by the antibody effector function.

FcγRIIa [7] = biological target: T4, FcγRIIa; test: FcγR binding activity, Biacore SPR; settings: antibody captured on protein A chip, receptor 0.41 nM to 100 nM
Description: as §2, §3

FcγRIIb [8] = biological target: T5, FcγRIIb; test: FcγR binding activity, Biacore SPR; settings: antibody captured on protein A chip, receptor 0.41 nM to 100 nM
Description: as §2, §3

FcγRI = biological target: T10, FcγRI (Homo sapiens, UniProt P12314); test: FcγR binding activity, Biacore SPR; settings: antibody captured on protein A chip, receptor 0.41 nM to 100 nM
T10 construct: purchased Abcam
T10 sequence (P12314 16-374): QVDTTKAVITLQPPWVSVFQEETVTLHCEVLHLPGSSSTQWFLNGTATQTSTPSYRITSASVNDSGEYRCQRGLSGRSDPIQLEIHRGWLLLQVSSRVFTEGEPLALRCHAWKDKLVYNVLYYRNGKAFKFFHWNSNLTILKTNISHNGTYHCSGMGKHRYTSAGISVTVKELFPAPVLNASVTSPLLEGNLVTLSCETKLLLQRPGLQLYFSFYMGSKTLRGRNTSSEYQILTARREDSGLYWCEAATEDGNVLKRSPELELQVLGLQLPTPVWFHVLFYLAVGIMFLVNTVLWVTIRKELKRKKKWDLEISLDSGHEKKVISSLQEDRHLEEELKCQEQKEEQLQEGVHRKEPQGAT
Description: (§4) A total of 5 Fc receptors, including FcγRI (Abcam), FcγRIIa, FcγRIIb, FcγRIIIa (158V), and FcγRIIIb (Sino Biological), were analyzed. One parental anti-5T4 Antibody (Ab1) without Fc mutations, was used as a positive control for FcR binding. SPR kinetic experiments were performed on Biacore 8K systems (GE Healthcare) with HBS-EP+ as running buffer. […] Capture level for each ligand was maintained between 50-100RU. […] After each binding cycle, the sensor chip was regenerated with glycine solution, pH 1.5. The resulting sensorgrams were fitted with a one-to-one binding model to extract kinetic constants using Biacore 8K Evaluation Software.

FcγRIIIa (158V) [9] = biological target: T11, FcγRIIIa (158V) (Homo sapiens, UniProt P08637, F176V); test: FcγR binding activity, Biacore SPR; settings: antibody captured on protein A chip, receptor 0.41 nM to 100 nM
T11 construct: purchased Sino Biological
T11 sequence (P08637 17-208 F176V limits assumed): as the sequence (P08637 17-208 F176V) above
Description: as §4

| Kd [3] | Kd (FcγRI (Abcam)) | Kd (FcγRIIa [4]) | Kd (FcγRIIb [5]) | KD for binding to FcγRIIIb (FcγRIIIb [6]) | Kd (FcγRIIa [7]) | Kd (FcγRIIb [8]) | Kd (FcγRI) | Kd (FcγRIIIa (158V) [9]) | Molecule | binding result (FcγRIIIa (158V) [1]) | binding result (FcγRIIIb [2]) |
| --- | --- | --- | --- | --- | --- | --- | --- | --- | --- | --- | --- |
| 0.775 nM | 39.6 nM | 91.5 nM | 116 nM | – | – | – | – | – | Bs3-HL-FCA biparatopic anti-5T4 antibody (Bs3 with the scFv in the VH-VL orientation and the L234F, S239C and N434A mutations) (bispecific antibody, human IgG1, kappa, also called 5T4-Bs3- FCA; BsAb with the FCA mutations) heavy: QVQLVQSGAEVKKPGASVKVSCKASGYSFTDYYMHWVRQAPGQGLEWMGRVSPNNGATNTNQKFKDRVTMTRDTSISTAYMELRSLRSEDTAVYYCARSTMITSYYFDYWGQGTLVTVSSASTKGPSVFPLAPSSKSTSGGTAALGCLVKDYFPEPVTVSWNSGALTSGVHTFPAVLQSSGLYSLSSVVTVPSSSLGTQTYICNVNHKPSNTKVDKRVEPKSCDKTHTCPPCPAPEFLGGPCVFLFPPKPKDTLMISRTPEVTCVVVDVSHEDPEVKFNWYVDGVEVHNAKTKPREEQYNSTYRVVSVLTVLHQDWLNGKEYKCKVSNKALPAPIEKTISKAKGQPREPQVYTLPPSREEMTKNQVSLTCLVKGFYPSDIAVEWESNGQPENNYKTTPPVLDSDGSFFLYSKLTVDKSRWQQGNVFSCSVMHEALHAHYTQKSLSLSPGKGGGGSGGGGSGGGGSEVQLLESGGGLVQPGGSLRLSCAASGFDFSRYWMTWVRQAPGKCLEWVSEINPDSRTINYTPSLKDRFTISRDNAKNTLYLQMNSLRAEDTAVYYCARPDHDYNPYYFNYWGQGTTVTVSSGGGGSGGGGSGGGGSGGGGSDIVLTQSPASLAVSLGQRATISCRPSQSVSTSSNSYIHWYQQKPGQPPKLLIKYASNLESGVPARFSGSGSGTDFTLTISPVEAEDTATYYCQQSWEIPLTFGCGTKLEIK light: DIVMTQSPSFLSVSVGDRVTITCKASQSVSTDVAWYQQKPGQAPKLLIYFASDRYTGVPDRFSGSGSGTDFTFTISSLQAEDVAVYYCQQDYSSPPTFGGGTKLEIKRTVAAPSVFIFPPSDEQLKSGTASVVCLLNNFYPREAKVQWKVDNALQSGNSQESVTEQDSKDSTYSLSSTLTLSKADYEKHKVYACEVTHQGLSSPVTKSFNRGEC | no binding (tested: receptor 0.41 nM to 100 nM) | no binding (tested: receptor 0.41 nM to 100 nM) |
| – | – | – | – | No binding | 98.6 nM | 111 nM | 3.73 nM | 50.5 nM | Parental Ab1 without Fc mutations: parental anti-5T4 Antibody (Ab1) without Fc mutations, used as a positive control for FcR binding (antibody, V domains shown) VH: QVQLVQSGAEVKKPGASVKVSCKASGYSFTDYYMHWVRQAPGQGLEWMGRVSPNNGATNTNQKFKDRVTMTRDTSISTAYMELRSLRSEDTAVYYCARSTMITSYYFDYWGQGTLVTVSS VL: DIVMTQSPSFLSVSVGDRVTITCKASQSVSTDVAWYQQKPGQAPKLLIYFASDRYTGVPDRFSGSGSGTDFTFTISSLQAEDVAVYYCQQDYSSPPTFGGGTKLEIK | – | – |
